Percent of SHH transferred from GAS1 to an equimolar amount of PTCH1 and Kd data for four molecules are collected here from article PMC8932645.

No end group written: not given here. *: point of attachment. Palmitoyl = CCCCCCCCCCCCCCCC(=O)*

The target in assay [1] is Xenopus laevis PTCH1 (residues 1–1178) (Xenopus laevis). The experiment in a line: native gel or EMSA.
Assay [2] concerns the target GAS1 ectodomain (GAS1-Ecto), FLAG-HaloTag7-tagged (human) (UniProt P54826). The experiment in a line: ITC.
Chain of UniProt P54826 (P54826 40-317): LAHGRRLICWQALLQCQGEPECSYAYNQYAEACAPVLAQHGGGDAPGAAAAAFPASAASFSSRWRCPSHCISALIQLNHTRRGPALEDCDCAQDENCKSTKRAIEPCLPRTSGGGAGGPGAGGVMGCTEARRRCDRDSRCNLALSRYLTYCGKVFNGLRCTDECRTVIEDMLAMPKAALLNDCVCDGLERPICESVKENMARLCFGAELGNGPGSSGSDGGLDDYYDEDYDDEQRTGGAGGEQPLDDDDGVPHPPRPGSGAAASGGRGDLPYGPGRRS

In assay [1], “dually lipidated Sonic hedgehog (SHH) (from UniProt Q15465 24-197) (ligand)” registered a percent of SHH transferred from GAS1 to an equimolar amount of PTCH1 of over 50%.

In assay [2], “palmitoylated SHH effector peptide (EP, SHH residues 24–45)” yielded a Kd of 3.84 µM.

In turn, octanoylated SHH effector peptide (EP) yielded a Kd in assay [2] of 34.6 µM.

B1: truncated, palmitoylated SHH EP (9aa, residues 24–32) (peptide)
peptide: Palmitoyl-SGPGRGFGK
B1 gave a Kd in assay [2] of 3.72 µM.
